Measured values: PMC2814540

Target: Human EGFR JM-kinase construct (JM-A and JM-B, residues 645-998) (human)
Assay: static light scattering

stoichiometry N: 2
Substance: Human EGFR JM-kinase construct (JM-A and JM-B, residues 645-998) (domain or fragment)
